Laboratory results from paper PMC6602295, “Structural mechanism for guanylate-binding proteins (GBPs) targeting by the Shigella E3 ligase IpaH9.8” (PLoS Pathogens, 2019).

Molecular target: T1, GBP1^LG-MD (LG-MD region of guanylate-binding protein 1, residues 1-479) (human, UniProt P32455 1-479)
T1 construct: also called C-terminally truncated GBP1; source: E. coli BL21(DE3), purified (Ni-NTA, ULP1 cleavage, second Ni-NTA, Superdex 200); not shown: His6-SUMO, N-terminal, cleaved
T1 sequence: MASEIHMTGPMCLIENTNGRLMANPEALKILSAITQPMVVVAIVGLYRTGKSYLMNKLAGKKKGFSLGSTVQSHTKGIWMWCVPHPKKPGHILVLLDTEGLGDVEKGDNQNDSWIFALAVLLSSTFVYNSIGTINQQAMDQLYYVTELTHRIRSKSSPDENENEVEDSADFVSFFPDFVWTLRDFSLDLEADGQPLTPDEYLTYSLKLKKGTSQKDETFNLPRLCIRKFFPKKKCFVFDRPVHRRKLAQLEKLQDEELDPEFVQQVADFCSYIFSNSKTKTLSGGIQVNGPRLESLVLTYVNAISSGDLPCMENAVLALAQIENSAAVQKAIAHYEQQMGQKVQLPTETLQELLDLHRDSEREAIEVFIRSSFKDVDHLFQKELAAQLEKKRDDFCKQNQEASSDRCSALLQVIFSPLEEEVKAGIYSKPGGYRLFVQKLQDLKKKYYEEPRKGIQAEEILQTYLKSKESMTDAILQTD
Experiment: crystal structure; purified IpaH9.8^LRR and GBP1^LG-MD incubated overnight on ice at a 1.5:1 molar ratio, passed through Superdex 200 (25 mM Tris-HCl pH 8.0, 20 mM NaCl, 2 mM DTT), no nucleotide; crystals at 20°C in 1.6 M sodium/potassium phosphate pH 6.5; 3.6 Å
Details: both partners purified

B1: IpaH9.8^LRR (Leucine-rich repeat domain of IpaH9.8, residues 22-252) (domain or fragment)
chain: TYADYFSAWDKWEKQALPGEERDEAVSRLKECLINNSDELRLDRLNLSSLPDNLPAQITLLNVSYNQLTNLPELPVTLKKLYSASNKLSELPVLPPALESLQVQHNELENLPALPDSLLTMNISYNEIVSLPSLPQALKNLRATRNFLTELPAFSEGNNPVVREYFFDRNQISHIPESILNLRNECSIHISDNPLSSHALPALQRLTSSPDYHGPRIYFSMSDGQQNTLHR
notes: E3 ubiquitin ligase IpaH9.8, Shigella flexneri, LRR domain, residues 22-252; source: E. coli BL21(DE3), purified (Ni-NTA, ULP1 cleavage, second Ni-NTA, Superdex 200); not shown: His6-SUMO, N-terminal, cleaved
binding result: binds
